These are literature values, as cited in publication PMC3937454.

The target of data set [1] is Lys146 (UniProt position 164, LRKLRKRLLRD). The settings on record: not stated (lipid-free or lipid-bound state not specified for the quoted values).
Data set [2] deals with Lys143 (UniProt position 161, ASHLRKLRKRL). The following applies: not stated (lipid-free or lipid-bound state not specified for the quoted values).

Consider “Apolipoprotein E3 (apoE3) (Homo sapiens)”, for which the pKa (usually the pH at which an ionisable group is half protonated) is recorded as 9.2 in data set [1] and 9.5 in data set [2].
